Results on one substance are retold here after PMC9120130.

The target of this assay is Human ACE2-hIgG1Fc (human) (UniProt Q9BYF1). The assay is described as follows: SPR. For orientation: In SPR one partner is held on a chip, and binding of the other changes the refractive index at the surface.
Human ACE2-hIgG1Fc (human), sequence (Q9BYF1 18-740): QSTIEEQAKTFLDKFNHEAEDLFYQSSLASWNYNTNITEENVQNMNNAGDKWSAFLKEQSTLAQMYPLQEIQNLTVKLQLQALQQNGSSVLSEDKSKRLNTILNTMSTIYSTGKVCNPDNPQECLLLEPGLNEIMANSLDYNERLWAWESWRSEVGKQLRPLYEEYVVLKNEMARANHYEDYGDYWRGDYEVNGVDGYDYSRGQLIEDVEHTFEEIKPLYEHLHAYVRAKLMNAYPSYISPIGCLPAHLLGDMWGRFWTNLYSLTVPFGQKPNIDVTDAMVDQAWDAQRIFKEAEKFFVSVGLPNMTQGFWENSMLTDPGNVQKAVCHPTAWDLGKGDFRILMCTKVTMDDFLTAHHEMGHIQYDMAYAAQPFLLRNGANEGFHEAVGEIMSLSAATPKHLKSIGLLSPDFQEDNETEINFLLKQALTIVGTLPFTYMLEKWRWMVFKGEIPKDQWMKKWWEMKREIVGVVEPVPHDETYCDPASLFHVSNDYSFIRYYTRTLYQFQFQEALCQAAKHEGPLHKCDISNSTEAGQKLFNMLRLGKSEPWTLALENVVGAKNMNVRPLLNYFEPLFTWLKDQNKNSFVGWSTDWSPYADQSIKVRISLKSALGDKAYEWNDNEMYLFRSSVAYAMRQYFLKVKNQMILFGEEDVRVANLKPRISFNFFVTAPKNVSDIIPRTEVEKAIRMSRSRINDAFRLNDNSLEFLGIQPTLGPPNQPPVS

As usually defined, the Kd is the equilibrium constant for the complex coming apart. Broadly, the koff is a measure of how fast the partners let go of each other. Read a high koff as a short-lived complex. Substance Wuhan RBD had a dissociation constant (Kd) of 7.3 nM and a koff of 0.0051 s⁻¹.
